In patent US20240360223A1 (DRAGONFLY THERAPEUTICS, published 2024):
Positions count from the first letter of the chain named. Where “and” joins values, the source holds several entries; their conditions need not be identical. Equal entries are not always repeated.

Tests used:
[1] = biological target: T1, human NKG2D (recombinant mFc-tagged dimer) (human, UniProt P26718 78-216); test: SPR, kinetics fit, average
T1 construct: also called hNKG2D
T1 sequence (looked up): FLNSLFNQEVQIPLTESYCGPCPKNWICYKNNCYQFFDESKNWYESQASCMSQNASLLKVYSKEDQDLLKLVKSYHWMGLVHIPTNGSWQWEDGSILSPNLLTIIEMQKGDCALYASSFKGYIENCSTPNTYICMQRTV
Text: NKG2D is a native dimer, therefore recombinant mFc-tagged NKG2D dimer was used for this experiment. Two different fits were utilized to obtain the equilibrium affinity data: steady state affinity fit and kinetic fit.

[2] = biological target: T1, human NKG2D (recombinant mFc-tagged …); test: SPR, kinetic fit, control
human CD16a V158 = biological target: T2, human CD16a V158 (human, UniProt P08637 17-208); test: SPR, kinetic fit, average
T2 construct: also called hCD16aV; hCD16a V158
T2 sequence (P08637 17-208 F176V limits assumed): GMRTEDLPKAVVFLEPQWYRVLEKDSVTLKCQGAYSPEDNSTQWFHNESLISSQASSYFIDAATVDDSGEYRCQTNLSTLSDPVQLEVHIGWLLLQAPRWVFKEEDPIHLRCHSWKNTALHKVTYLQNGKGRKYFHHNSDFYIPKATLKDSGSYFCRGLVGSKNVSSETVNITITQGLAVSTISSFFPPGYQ

[3] = biological target: T3, cynomolgus NKG2D (recombinant mFc-tagged dimer) (cynomolgus, UniProt P61252 78-216); test: SPR
T3 construct: also called cyno NKG2D
T3 sequence (looked up): T1 sequence (looked up) with D38N, T128I
Text: Two different fits were utilized to obtain the equilibrium affinity data: steady state affinity fit and kinetic fit.

cynomolgus FcRn = biological target: T4, cynomolgus FcRn (cynomolgus, UniProt Q8SPV9 24-297; Q8SPW0 21-119); test: SPR, pH 6.0, steady state; pH 6.0; second replicate
T4 construct: also called Cyno FcRn
T4 sequence (Q8SPV9 24-297 limits assumed, chain 1 of 2): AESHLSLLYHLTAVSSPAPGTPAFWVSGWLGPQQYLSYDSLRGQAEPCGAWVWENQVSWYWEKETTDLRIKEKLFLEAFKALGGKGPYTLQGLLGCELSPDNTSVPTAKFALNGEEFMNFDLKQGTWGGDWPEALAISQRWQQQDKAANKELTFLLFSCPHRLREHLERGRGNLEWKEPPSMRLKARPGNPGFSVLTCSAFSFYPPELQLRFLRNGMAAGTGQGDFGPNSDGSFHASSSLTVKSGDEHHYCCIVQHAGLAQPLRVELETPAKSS
T4 sequence (Q8SPW0 21-119 limits assumed, chain 2 of 2): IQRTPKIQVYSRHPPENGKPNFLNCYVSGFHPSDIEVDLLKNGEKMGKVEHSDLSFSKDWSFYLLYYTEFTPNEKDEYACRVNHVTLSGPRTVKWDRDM

Kd [1]: 456 nM
Kd [2]: 503 nM
Kd (human CD16a V158): 129 nM
koff [3]: 0.11 s⁻¹ and 0.12 s⁻¹
kon [3]: 180000 M⁻¹ s⁻¹ and 190000 M⁻¹ s⁻¹
Kd (cynomolgus FcRn): 1000 nM
B1: AB1424/AB1612 F3′ TriNKET (bispecific antibody, human IgG1, kappa)
chain: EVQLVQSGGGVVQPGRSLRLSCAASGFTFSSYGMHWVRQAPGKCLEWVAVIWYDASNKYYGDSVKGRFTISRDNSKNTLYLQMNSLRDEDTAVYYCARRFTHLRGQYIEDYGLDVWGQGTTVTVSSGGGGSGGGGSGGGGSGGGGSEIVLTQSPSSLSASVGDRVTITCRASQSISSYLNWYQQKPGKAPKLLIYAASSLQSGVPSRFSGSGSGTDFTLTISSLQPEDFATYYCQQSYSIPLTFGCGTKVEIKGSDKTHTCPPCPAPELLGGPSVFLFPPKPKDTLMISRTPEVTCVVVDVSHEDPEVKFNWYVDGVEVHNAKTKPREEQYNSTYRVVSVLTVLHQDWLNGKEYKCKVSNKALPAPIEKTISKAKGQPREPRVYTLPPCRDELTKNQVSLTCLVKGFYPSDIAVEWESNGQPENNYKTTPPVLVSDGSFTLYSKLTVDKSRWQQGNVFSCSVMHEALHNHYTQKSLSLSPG
heavy: EVQLVESGGGLVKPGGSLRLSCAASGFTFSSYSMNWVRQAPGKGLEWVSSISSSSSYIYYADSVKGRFTISRDNAKNSLYLQMNSLRAEDTAVYYCARGAPIGAAAGWFDPWGQGTLVTVSSASTKGPSVFPLAPSSKSTSGGTAALGCLVKDYFPEPVTVSWNSGALTSGVHTFPAVLQSSGLYSLSSVVTVPSSSLGTQTYICNVNHKPSNTKVDKKVEPKSCDKTHTCPPCPAPELLGGPSVFLFPPKPKDTLMISRTPEVTCVVVDVSHEDPEVKFNWYVDGVEVHNAKTKPREEQYNSTYRVVSVLTVLHQDWLNGKEYKCKVSNKALPAPIEKTISKAKGQPREPQVCTLPPSRDELTENQVSLTCLVKGFYPSDIAVEWESNGQPENNYKTTPPVLDSDGSFFLYSWLTVDKSRWQQGNVFSCSVMHEALHNHYTQKSLSLSPG
light: DIQMTQSPSSVSASVGDRVTITCRASQGISSWLAWYQQKPGKAPKLLIYAASSLQSGVPSRFSGSGSGTDFTLTISSLQPEDFATYYCQQGVSFPRTFGGGTKVEIKRTVAAPSVFIFPPSDEQLKSGTASVVCLLNNFYPREAKVQWKVDNALQSGNSQESVTEQDSKDSTYSLSSTLTLSKADYEKHKVYACEVTHQGLSSPVTKSFNRGEC
notes: Chain S: anti-BAFF-R scFv-CH2-CH3; chain H: anti-NKG2D VH-CH1-CH2-CH3; chain L: anti-NKG2D VL-CL; also called AB1612-002
